{"source": "paper PMC3427744", "key": {"commercial rituximab": {"target": "commercial rituximab", "experiment": "SPR"}, "[1]": {"target": "non-fucosylated G2 glycoform of rituximab (10)", "experiment": "SPR"}}}
{"substance": "FcγRIIb (from UniProt P31994 43-310) (receptor)", "values": [{"measurement": "Kd", "setting": "commercial rituximab", "result": 2, "unit": "µM"}]}
{"substance": "FcγRIIIa-F158 (from UniProt P08637 17-254) (receptor)", "values": [{"measurement": "Kd", "setting": "commercial rituximab", "result": 1.04, "unit": "µM"}, {"measurement": "Kd", "setting": "[1]", "result": 0.123, "unit": "µM"}]}
